Measurements: patent publication US20150233949

B1: human SIRT3-HA (protein)
chain: MAFWGWRAAAALRLWGRVVERVEAGGGVGPFQACGCRLVLGGRDDVSAGLRGSHGARGEPLDPARPLQRPPRPEVPRAFRRQPRAAAPSFFFSSIKGGRRSISFSVGASSVVGSGGSSDKGKLSLQDVAELIRARACQRVVVMVGAGISTPSGIPDFRSPGSGLYSNLQQYDLPYPEAIFELPFFFHNPKPFFTLAKELYPGNYKPNVTHYFLRLLHDKGLLLRLYTQNIDGLERVSGIPASKLVEAHGTFASATCTVCQRPFPGEDIRADVMADRVPRCPVCTGVVKPDIVFFGEPLPQRFLLHVVDFPMADLLLILGTSLEVEPFASLTEAVRSSVPRLLINRDLVGPLAWHPRSRDVAQLGDVVHGVESLVELLGWTEEMRDLVQRETGKLDGPDK
B2: SIRT3 (protein)
chain: B1 chain

What was measured:
[1] = molecular target: mouse cytochrome c with a C-terminal Flag tag
mouse cytochrome c with a C-terminal Flag tag, sequence (chain, as listed by the source): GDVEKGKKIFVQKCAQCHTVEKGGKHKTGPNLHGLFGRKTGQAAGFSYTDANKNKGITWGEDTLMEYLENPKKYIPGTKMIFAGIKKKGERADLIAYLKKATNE

Protein | acetylation of residues K40 and K74 of cytochrome c (mass spectrometry) [1] | deacetylation assay (Western blot) (endogenous cytochrome c)
B1 | when hSIRT3 was cotransfected with cytochrome c, acetylation of residues K40 and K74 of cytochrome c was no longer detected | 
B2 |  | SIRT3 can deacetylate endogenous cytochrome c
